This is an account of results in FireProtDB (doi:10.1006/jmbi.2001.4521).

First the molecules themselves.
B1: Growth factor receptor-bound protein 2, Q08012 (parent)
chain: MEAIAKHDFSATADDELSFRKTQILKILNMEDDSNWYRAELDGKEGLIPSNYIEMKNHDWYYGRITRADAEKLLSNKHEGAFLIRISESSPGDFSLSVKCPDGVQHFKVLRDAQSKFFLWVVKFNSLNELVEYHRTASVSRSQDVKLRDMIPEEMLVQALYDFVPQESGELDFRRGDVITVTDRSDENWWNGEIGNRKGIFPATYVTPYHS

In the series the parent is B1. Conditions: Drosophila melanogaster, pH 6, Thermal, CD, phosphate 50 mM, Na2SO4 0.4 M, structure 2A36, whole UniProt chain shown; for unfolding free energy: 25 °C.

In general, Tm refers to the temperature at the midpoint of the melting transition. As for T22D, the unfolding free energy worked out at 3.3 kcal/mol; the Tm came to 73.1 °C; the “change of melting temperature, mutant - wild type (higher = more stable)” value (“change of melting temperature, mutant” below) was 9.4 °C.

As for T22K, the unfolding free energy was 1.8 kcal/mol; the Tm was 65 °C; the “change of melting temperature, mutant” value is 1.3 °C.

Consider T22S, for which the unfolding free energy was found to be 2.4 kcal/mol; the Tm was 63.5 °C; the “change of melting temperature, mutant” value was -0.2 °C.

Take T22N: the unfolding free energy was 3.1 kcal/mol.

As for T22L, the Tm is 58 °C and the “change of melting temperature, mutant” value is -5.7 °C.

Regarding T22F, the unfolding free energy came out at 3.1 kcal/mol; the Tm amounted to 66.7 °C; the “change of melting temperature, mutant” value is 3 °C.

Turning to T22G, the unfolding free energy turned out to be 4.2 kcal/mol; the Tm was 84.8 °C; the “change of melting temperature, mutant” value came out at 21.1 °C.

On to T22A, for which the unfolding free energy stood at 2.2 kcal/mol; the Tm was determined as 66.9 °C; the “change of melting temperature, mutant” value stood at 3.2 °C.

On to T22G Q23D, for which the Tm was 88.9 °C and the “change of melting temperature, mutant” value worked out at 25.2 °C.
